{
  "source": "patent US20220168345A1",
  "about": "(published 2022)",
  "biological_target": "T1, NY-ESO-1 peptide on HLA-B*07:02 (human)",
  "T1 peptide": "APRGPHGGAASGL",
  "test": "multimer staining",
  "source_text": "FIGS. 3A-3I are graphical representations of positive staining of Jurkat 76/CD8 cells transduced with B*07:02/NY-ESO-1₆₀₋₇₂ TCR genes with a cognate multimer. Jurkat 76/CD8 cells transduced with the B*07:02/NY-ESO-1₆₀₋₇₂ TCR (FIGS. 3B, 3E, and 3H) were stained with the B*07:02/NY-ESO-1₆₀₋₇₂ multimer (FIG. 3B). The B*07:02/MAGE-A1₂₈₉₋₂₉₇ multimer (FIGS. 3D, 3E, and 3F), B*07:02/unexchanged multimer (FIGS. 3G, 3H, and 3I), and B*07:02/MAGE-A1₂₈₉₋₂₉₇ TCR (FIGS. 3C, 3F, and 3I) were employed as controls, as well as Jurkat 76/CD8 not transduced with a TCR (FIGS. 3A, 3D, and 3G). The percentage of multimer⁺ CD8⁺ cells is shown.\nT cells (1×10⁵) were incubated for 30 minutes at 37° C. in the presence of 50 nM dasatinib (LC laboratories). The cells were then washed and incubated with 5-10 μg/ml of multimer for 30 minutes at room temperature, and R-phycoerythrin-conjugated AffiniPure Fab fragment goat anti-mouse IgG1 (Jackson ImmunoResearch Laboratories) was added for 15 minutes at 4° C. Next, the cells were washed three times and costained with an anti-CD8 mAb for 15 minutes at 4° C. Dead cells were finally discriminated using the LIVE/DEAD Fixable Dead Cell Stain kit.",
  "data": [
    {"binder": "B*07:02/NY-ESO-1 60-72 TCR (TCR, V domains shown) Valpha: AQSVTQLDSHVSVSEGTPVLLRCNYSSSYSPSLFWYVQHPNKGLQLLLKYTSAATLVKGINGFEAEFKKSETSFHLTKPSAHMSDAAEYFCVVSFSGNTPLVFGKGTRLSVIA Vbeta: DTGVSQDPRHKITKRGQNVTFRCDPISEHNRLYWYRQTLGQGPEFLTYFQNEAQLEKSRLLSDRFSAERPKGSFSTLEIQRTEQGDSAMYLCASSSSYSNQPQHFGDGTRLSIL", "values": [
      {"measurement": "binding result", "value": "recognises"}
    ]}
  ]
}
